Measurements published in patent US20110301073.

What was measured:
Test in all cases: cell_activity
[1] = test system: TALEN 101237 (NK half repeat) (synthetic (Xanthomonas TALE)); settings: paired with 101236
[2] = test system: C1 TALEN 101381 (synthetic (Xanthomonas TALE)); settings: paired with 101380; site given 3'-5', reversed here
[3] = test system: TALEN 101236 (HD half repeat) (synthetic (Xanthomonas TALE)); settings: paired with 101238; 2.5% with 101237
[4] = test system: RPD1 TALEN 101393 (synthetic (Xanthomonas TALE)); settings: paired with 101389; site given 3'-5', reversed here
[5] = test system: TALEN 101234 (HD half repeat) (synthetic (Xanthomonas TALE)); settings: paired with 101231
[6] = test system: TALEN 101166 (synthetic (Xanthomonas TALE)); settings: paired with 101240; 5.3% with 101167
[7] = test system: TALEN 101167 (synthetic (Xanthomonas TALE)); settings: paired with 101239; 5.3% with 101166
[8] = test system: TALEN 101230 (HD half repeat) (synthetic (Xanthomonas TALE)); settings: paired with 101156
[9] = test system: C1 TALEN 101378 (synthetic (Xanthomonas TALE)); settings: paired with 101379
[10] = test system: TALEN 101233 (NI half repeat) (synthetic (Xanthomonas TALE)); settings: paired with 101151
[11] = test system: TALEN 101239 (HD half repeat) (synthetic (Xanthomonas TALE)); settings: paired with 101167; 11.2% with 101240
[12] = test system: TALEN 101151 (synthetic (Xanthomonas TALE)); settings: paired with 101233
[13] = test system: RPD1 TALEN 101391 (synthetic (Xanthomonas TALE)); settings: paired with 101390; site given 3'-5', reversed here
[14] = test system: TALEN 101231 (NI half repeat) (synthetic (Xanthomonas TALE)); settings: paired with 101234
[15] = test system: RPD1 TALEN 101390 (synthetic (Xanthomonas TALE)); settings: paired with 101391; printed site lacks one A relative to the locus
[16] = test system: TALEN 101235 (HD half repeat) (synthetic (Xanthomonas TALE)); settings: paired with 101238
[17] = test system: C1 TALEN 101370 (synthetic (Xanthomonas TALE)); settings: paired with 101371
[18] = test system: TALEN 101240 (HD half repeat) (synthetic (Xanthomonas TALE)); settings: paired with 101239; 10.7% with 101166
[19] = test system: C1 TALEN 101380 (synthetic (Xanthomonas TALE)); settings: paired with 101381
[20] = test system: C1 TALEN 101371 (synthetic (Xanthomonas TALE)); settings: paired with 101370; site given 3'-5', reversed here
[21] = test system: TALEN 101156 (synthetic (Xanthomonas TALE)); settings: paired with 101230
[22] = test system: RPD1 TALEN 101388 (synthetic (Xanthomonas TALE)); settings: paired with 101391; Neuro 2A
[23] = test system: RPD1 TALEN 101389 (synthetic (Xanthomonas TALE)); settings: paired with 101393; Neuro 2A
[24] = test system: TALEN 101238 (HD half repeat) (synthetic (Xanthomonas TALE)); settings: paired with 101236; 8.1% with 101235

In the case of “CGGGGATGATCTACGG (double strand) [101237 site]”, the activity [1] was 2.5 % NHEJ.
With “TTGCCGAGGAGCCTGT (double strand) [101381 site]” the activity (relative DLSSA units) [2] was 10.3.
Sequence “ACGCCGTGGAAAGGCC (double strand) [101236 site]” has an activity [3] of 9.2 % NHEJ.
In the case of “TGAACTAGTGGGAGTGTT (double strand) [101393 site]”, the activity (relative DLSSA units) [4] was 9.9.
“ACCGCTGTGCTCCTGGC (double strand) [101234 site]” gave an activity [5] of 10 % NHEJ.
With “GAGCGGCCCCGCCCGT (double strand) [101166 site]” the activity [6] was 10.7 % NHEJ.
With “CGTTGCCCCCGCCCT (double strand) [101167 site]” the activity [7] was 13.1 % NHEJ.
“GGCACTCCGCACCCC (double strand) [101230 site]” was tested, and the activity [8] was 4.9 % NHEJ.
For “TGAACTACCTCCGGCCC (double strand) [101378 site]”, the activity (relative DLSSA units) [9] was 7.1.
“GCTCCTGGCCCTTGCA (double strand) [101233 site]” was tested, and the activity [10] was 13.3 % NHEJ.
In the case of “ATGAGCGGCCCCGCC (double strand) [101239 site]”, the activity [11] was 13.1 % NHEJ.
Work on “CCGCACCCCCAGCT (double strand) [101151 site]” yielded an activity [12] of 13.3 % NHEJ.
For “TGGGAGTGTTGCAT (double strand) [101391 site]”, the activity (relative DLSSA units) [13] was 9.7.
“GGCACTCCGCACCCCCA (double strand) [101231 site]” was tested, and the activity [14] was 10 % NHEJ.
Work on “TTTGAAGAACTATATT (double strand) [101390 site]” yielded an activity (relative DLSSA units) [15] of 9.7.
“ACGCCGTGGAAAGGC (double strand) [101235 site]” was tested, and the activity [16] was 8.1 % NHEJ.
For “TGGGGAGGAGGGCGTGCT (double strand) [101370 site]”, the activity (relative DLSSA units) [17] was 5.
Sequence “GAATCGTTGCCCCCGC (double strand) [101240 site]” has an activity [18] of 11.2 % NHEJ.
Work on “TCCTACGACGAGGAGGAT (double strand) [101380 site]” yielded an activity (relative DLSSA units) [19] of 10.3.
“TCGTCCACGCCCCTCTCT (double strand) [101371 site]” showed an activity (relative DLSSA units) [20] of 5.
In the case of “TACCGCTGTGCTCCT (double strand) [101156 site]”, the activity [21] was 4.9 % NHEJ.
Work on “TTATTTGAAGAAACT (double strand) [101388 site]” yielded an activity (relative DLSSA units) [22] of 7.6.
Work on “TTATTTGAAGAAACTAT (double strand) [101389 site]” yielded an activity (relative DLSSA units) [23] of 9.9.
“CGGGGATGATCTAC (double strand) [101238 site]” showed an activity [24] of 9.2 % NHEJ.
